Here are results for twelve molecules from PMC3563628, “Prevalence, Specificity and Determinants of Lipid-Interacting PDZ Domains from an In-Cell Screen and In Vitro Binding Experiments” (PLoS ONE, 2013).

The test system of data set [1] is eYFP-S1PDZ1-FYVE in MCF-7 cells. Put plainly: Pharmacological treatment, localization of eYFP-S1PDZ1-FYVE. The settings on record: wortmannin 500 nM or LY294002 50 µM for 30 min, YM201636 800 nM for 2 h. Format: cell-based.
Data set [2] concerns eYFP-S1PDZ1-MAGI3_3 and eYFP-S1PDZ1-IL16_1 in MCF-7 cells. Put plainly: Pharmacological treatment, peroxisomal enrichment of eYFP-S1PDZ1-MAGI3_3 and eYFP-S1PDZ1-IL16_1. Format: cell-based. The settings on record: wortmannin 500 nM, LY294002 50 µM, ionomycin 10 µM.
Data set [3] relates to eYFP-S1PDZ1-CASK in MCF-7 cells. In words: Pharmacological treatment, plasma membrane localization of eYFP-S1PDZ1-CASK. It is filed as cell-based. The settings on record: MCF-7; ionomycin 10 µM; PAO 100 µM; wortmannin 500 nM.
A further data set addresses T1, CASK/I517W (human, UniProt O14936 489-564).
T1 chain: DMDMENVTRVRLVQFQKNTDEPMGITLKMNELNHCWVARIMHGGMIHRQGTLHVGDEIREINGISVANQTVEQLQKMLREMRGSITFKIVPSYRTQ
In words: other fluorescence titration; equilibrium titration of peptide into Trp-engineered PDZ domain kept constant at 3 µM, followed by intrinsic tryptophan fluorescence; 25°C, 25 mM HEPES, 150 mM NaCl, pH 7.2, 1 mM beta-mercaptoethanol. The conditions noted are these: both partners purified.

Data set [4] addresses C-terminal peptide of usher (FTDTHL). In words: Equilibrium peptide binding titration followed by intrinsic tryptophan fluorescence. The conditions noted are these: for Kd: Y167W mutation introduced as fluorescent probe, protein 3 µM, 25°C, pH 7.2. The source says:
Given the overall low PtdInsPs specificities, and often modest PtdInsPs affinities, it is unlikely that PtdInsPs bindings alone target the PDZ domains to their defined subcellular compartments. Plausibly, peptide interactions are also involved in controlling the subcellular targeting. To address the interplay between PtdInsPs and peptide-binding we chose DFNB31_1 and CASK as models, taking two of the PDZ domains with well-defined cognate peptides. Cognate peptide ligands were the C-terminal peptides of usher (FTDTHL) for DFNB31_1 [50] and the TKEFYA peptide of syndecan-2 for CASK [51]. We measured the PDZ-peptide affinities by a fluorescence-based approach (Fig. 4E), by engineering Trp into the PDZ scaffolds and following the interactions by changes in intrinsic fluorescence, a strategy previously established for other PDZ domains (KD-values: DFNB31_1/Y167W for FTDTHL 46±6 µM; CASK/I157W for TKEFYA 280±20 µM), [52]. We then determined the apparent PtdIns(4,5)P2 affinities in presence of a (close to) saturating concentration of respective peptide (1 mM). The FTDTHL peptide appeared to compete for DFNB31_1-PtdIns(4,5)P2 interactions (KD ^PtdIns(4,5)P2 in presence of peptide >30 µM, Fig. 4F), which might indicate overlapping binding sites. […] We have previously reported on competitive binding by peptide and PtdIns(4,5)P2 with CASK [13]. However, in these experiments the peptide was linked to sepharose beads and PtdIns(4,5)P2 was present on micelles, which made it more difficult for the PDZ domain to simultaneously interact with the two ligands.
(§1) Spectrofluorimetric measurements were performed at 25°C in 25 mM HEPES, 150 mM NaCl, pH 7.2 and 1 mM beta-mercaptoethanol in a Carry Eclipse Spectrofluorimeter (Varian). The peptides corresponded to the C-termini of syndecan-2 (TKEFYA) and usher (FTDTHL) and were of high purity (purity >95%, GeneCust), and the experiment were performed and analyzed as described previously. Urea induced equilibrium unfolding experiments were performed using 1 µM of proteins (excitation 280 nm emission 320–380 nm) and the data fitted by a standard two-state model.

Data set [5] is described as follows: Urea induced equilibrium unfolding followed by fluorescence. Format: physicochemical. The conditions noted are these: Y167W background, ΔGD-N mut − ΔGD-N wt. The method, then: as §1
The effects of the mutations on the stability were calculated by ΔΔGD −N = ΔGD −Nmut − ΔGD −Nwt, where ΔΔGD-N is the difference between the free energies of unfolding upon mutation.

Data set [6] can be described thus: SPR equilibrium binding of his-tagged PDZ domains to PtdIns(4,5)P2 liposomes. The settings on record: for Kd: SPR equilibrium analysis, 5% PtdIns(4,5)P2 in DOPC liposomes, 25°C, pH 7.2, read-out: KD app PtdIns(4,5)P2.
Data set [7] addresses T2, DFNB31_1/R144E (with Y167W) (human, UniProt Q9P202 136-224, R144E | Y167W).
T2 construct: first PDZ domain of human DFNB31 (whirlin); predicted PDZ domain with ten amino acids added on each side
T2 sequence: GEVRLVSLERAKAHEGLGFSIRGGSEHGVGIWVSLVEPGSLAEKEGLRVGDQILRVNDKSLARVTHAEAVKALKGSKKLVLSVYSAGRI
Put plainly: other fluorescence titration; equilibrium titration of peptide into Trp-engineered PDZ domain kept constant at 3 µM, followed by intrinsic tryptophan fluorescence; 25°C, 25 mM HEPES, 150 mM NaCl, pH 7.2, 1 mM beta-mercaptoethanol. The settings on record: both partners purified.

In data set [8] the target is T3, DFNB31_1/K209E (with Y167W) (human, UniProt Q9P202 136-224, K209E | Y167W).
T3 construct: first PDZ domain of human DFNB31 (whirlin); predicted PDZ domain with ten amino acids added on each side; The text once prints R209E for this mutant; also called R209E (once in the text)
T3 sequence: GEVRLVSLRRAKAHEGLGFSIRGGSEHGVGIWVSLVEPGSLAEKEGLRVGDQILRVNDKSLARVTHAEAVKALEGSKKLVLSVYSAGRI
The data set is described as above. The conditions noted are these: both partners purified.

Data set [9] deals with T4, DFNB31_1/K212E (with Y167W) (human, UniProt Q9P202 136-224, K212E | Y167W).
T4 construct: first PDZ domain of human DFNB31 (whirlin); predicted PDZ domain with ten amino acids added on each side
T4 sequence: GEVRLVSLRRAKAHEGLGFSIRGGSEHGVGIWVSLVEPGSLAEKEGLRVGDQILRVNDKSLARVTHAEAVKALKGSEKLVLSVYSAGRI
The description is as above. The settings on record: both partners purified.

Data set [10] addresses T5, DFNB31_1/K206E (with Y167W) (human, UniProt Q9P202 136-224, K206E | Y167W).
T5 construct: first PDZ domain of human DFNB31 (whirlin); predicted PDZ domain with ten amino acids added on each side
T5 sequence: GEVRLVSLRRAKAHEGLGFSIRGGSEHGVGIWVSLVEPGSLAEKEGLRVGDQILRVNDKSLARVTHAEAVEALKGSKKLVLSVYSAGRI
The description is as above. The conditions noted are these: both partners purified.

The target in data set [11] is T6, DFNB31_1/R145E (with Y167W) (human, UniProt Q9P202 136-224, R145E | Y167W).
T6 construct: first PDZ domain of human DFNB31 (whirlin); predicted PDZ domain with ten amino acids added on each side
T6 sequence: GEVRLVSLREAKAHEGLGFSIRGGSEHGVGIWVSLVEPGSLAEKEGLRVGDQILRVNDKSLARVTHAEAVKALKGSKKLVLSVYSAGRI
The description is as above. The conditions noted are these: both partners purified.

A further data set has as its target T7, DFNB31_1/Y167W (human, UniProt Q9P202 136-224, Y167W).
T7 construct: first PDZ domain of human DFNB31 (whirlin); predicted PDZ domain (Interpro, PFAM, SMART) with ten amino acids of the original protein added on each side; also called first PDZ domain of DFNB31 with a Trp probe
T7 sequence: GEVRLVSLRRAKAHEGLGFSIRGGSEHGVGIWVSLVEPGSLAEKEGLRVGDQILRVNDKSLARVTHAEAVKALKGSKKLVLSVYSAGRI
The data set is described as above. The settings on record: both partners purified.

Where only a bound is given, the exact number is not on record here.

As to `Nc1ccc(C(=O)Nc2cccc(-c3nc(N4CCOCC4)c4oc5ncccc5c4n3)c2)cn1` [YM201636], the “localization of eYFP-S1PDZ1-FYVE upon treatment” value in data set [1] is reported as “accumulation of eYFP-S1PDZ1-FYVE at the limiting membranes”.

On to `COC[C@H]1OC(=O)c2coc3c2[C@@]1(C)C1=C(C3=O)[C@@H]2CCC(=O)[C@@]2(C)C[C@H]1OC(C)=O` [wortmannin], for which, in data set [2], the “peroxisomal enrichments of eYFP-S1PDZ1-MAGI3_3 and eYFP-S1PDZ1-IL16_1 upon treatment” value was “did not alter”. Besides, the “plasma membrane localization of eYFP-S1PDZ1-CASK upon treatment” value in data set [3] was “failed to release”. Also, the “localization of eYFP-S1PDZ1-FYVE upon treatment” value in [1] is listed as “lost”.

Regarding `CCCCOc1cc(C(=O)NCCN(CC)CC)c2ccccc2n1` [dibucaine], the “plasma membrane localization of eYFP-S1PDZ1-CASK upon treatment” value in data set [3] is recorded as “failed to release”.

For the molecule `O=c1cc(N2CCOCC2)oc2c(-c3ccccc3)cccc12` [LY294002, 2-(4-morpholinyl)-8-phenyl-4H-1-benzopyran-4-one], the “peroxisomal enrichments of eYFP-S1PDZ1-MAGI3_3 and eYFP-S1PDZ1-IL16_1 upon treatment” value in [2] is “did not alter”. Besides, the “localization of eYFP-S1PDZ1-FYVE upon treatment” value in data set [1] is “lost”.

B1: C-terminal peptide of syndecan-2 (TKEFYA) (peptide)
peptide: TKEFYA
notes: C-terminus of syndecan-2; last six residues; also called TKEFYA peptide of syndecan-2; source: synthetic peptide, bought: GeneCust (purity >95%)
B1 came in with a Kd with CASK/I517W of 280 ± 20 µM.

B2: DFNB31_1/Y167W: DFNB31_1 with Y167W mutation as fluorescent probe (protein)
chain: GEVRLVSLRRAKAHEGLGFSIRGGSEHGVGIWVSLVEPGSLAEKEGLRVGDQILRVNDKSLARVTHAEAVKALKGSKKLVLSVYSAGRI
modifications: left off: His6, N-terminal, state not stated
notes: DFNB31_1 with Y167W mutation as fluorescent probe
As for B2, the Kd in data set [4] came out at 46 ± 6 µM.

B3: DFNB31_1/R144E: DFNB31_1 PDZ domain mutant R144E (protein)
chain: GEVRLVSLERAKAHEGLGFSIRGGSEHGVGIWVSLVEPGSLAEKEGLRVGDQILRVNDKSLARVTHAEAVKALKGSKKLVLSVYSAGRI
modifications: left off: His6, N-terminal, state not stated
In the case of B3, the ΔΔGD-N in data set [5] is -0.65 ± 0.05 kcal/mol. In addition, the Kd is > 20 µM in data set [6] and 82 ± 3 µM in data set [4].

B4: DFNB31_1/R145E: DFNB31_1 PDZ domain mutant R145E (protein)
chain: GEVRLVSLREAKAHEGLGFSIRGGSEHGVGIWVSLVEPGSLAEKEGLRVGDQILRVNDKSLARVTHAEAVKALKGSKKLVLSVYSAGRI
modifications: left off: His6, N-terminal, state not stated
As to B4, in data set [5], the ΔΔGD-N is -0.53 ± 0.05 kcal/mol. Besides, the figures for the Kd in data set [6] and in data set [4] were 15 ± 5 µM and 71 ± 8 µM, respectively. Besides, the “decrease in PtdIns(4,5)P2 binding upon mutation” value in data set [6] (versus wild type DFNB31_1) was found to be 2 fold.

B5: DFNB31_1/K206E: DFNB31_1 PDZ domain mutant K206E (protein)
chain: GEVRLVSLRRAKAHEGLGFSIRGGSEHGVGIWVSLVEPGSLAEKEGLRVGDQILRVNDKSLARVTHAEAVEALKGSKKLVLSVYSAGRI
modifications: left off: His6, N-terminal, state not stated
Molecule B5 came in with a ΔΔGD-N in [5] of 0.41 ± 0.03 kcal/mol. The Kd in data set [6] is 8.2 ± 2 µM; in data set [4] it was 111 ± 8 µM. Moreover, the “decrease in peptide binding affinity upon mutation” value in data set [4] (versus DFNB31_1 (Y167W background)) came to 2 fold.

B6: DFNB31_1/K212E: DFNB31_1 PDZ domain mutant K212E (protein)
chain: GEVRLVSLRRAKAHEGLGFSIRGGSEHGVGIWVSLVEPGSLAEKEGLRVGDQILRVNDKSLARVTHAEAVKALKGSEKLVLSVYSAGRI
modifications: left off: His6, N-terminal, state not stated
Take B6: in data set [5], the ΔΔGD-N stood at 1.2 ± 0.1 kcal/mol. The Kd is > 20 µM in [6] and 220 ± 40 µM in data set [4].

B7: DFNB31_1/K209E: DFNB31_1 PDZ domain mutant K209E (protein)
chain: GEVRLVSLRRAKAHEGLGFSIRGGSEHGVGIWVSLVEPGSLAEKEGLRVGDQILRVNDKSLARVTHAEAVKALEGSKKLVLSVYSAGRI
modifications: left off: His6, N-terminal, state not stated
As for B7, the ΔΔGD-N in data set [5] is -0.15 ± 0.01 kcal/mol. The Kd in [6] was > 20 µM; in data set [4] it was 175 ± 15 µM.

B8: C-terminal peptide of usher (FTDTHL) (peptide)
peptide: FTDTHL
notes: last six residues; also called FTDTHL peptide; source: synthetic peptide, bought: GeneCust (purity >95%)
On to B8, for which the Kd in data set [7] turned out to be 82 ± 3 µM; in data set [8], 175 ± 15 µM; in data set [9], 220 ± 40 µM; in data set [10], 111 ± 8 µM; in data set [11] it was 71 ± 8 µM; with DFNB31_1/Y167W, 46 ± 6 µM.
